Earlier results, collected in paper PMC5810417.
Like-named read-outs stand apart in the source and are kept apart here. Each block holds one substance with its values, some of them ahead of it.

Tests used:
Prdx6 (Homo sapiens) [1] = molecular target: Prdx6 (Homo sapiens) (UniProt P30041)
Prdx6 (Homo sapiens) [2] = molecular target: Prdx6 (Homo sapiens) (UniProt P30041); remark: listed apart in the source
Prdx6 (Homo sapiens) [3] = molecular target: Prdx6 (Homo sapiens) (UniProt P30041); remark: listed apart in the source
Prdx6 (Homo sapiens) [4] = molecular target: Prdx6 (Homo sapiens) (UniProt P30041); assay: PLA2 activity inhibition

- Kd (Prdx6 (Homo sapiens) [1]): < 20 nM
Substance: Prdx6 (from UniProt P30041)

- Ki (Prdx6 (Homo sapiens) [4]): 130 nM
Substance: SP-A (from UniProt Q8IWL2)

Second part, the substance before the results:

Substance: πGST1-1B and D (from UniProt P09211)
- Kd (Prdx6 (Homo sapiens) [2]): 100 nM

Substance: πGST1-1A and C (from UniProt P09211)
- Kd (Prdx6 (Homo sapiens) [3]): 50 nM

Substance: p67phox (from UniProt P19878)
- Ki (Prdx6 (Homo sapiens) [4]): 65 nM
